Measured values published in article PMC8324494 (Cell Reports Medicine, 2021).

How the values were obtained:
[1] = biological target: endogenous GPC2 on high-GPC2-expressing neuroblastoma cell lines (Homo sapiens (Human)., UniProt Q8N158); experiment: flow cytometry on cells
[2] = biological target: GPC2 clone of the Membrane Proteome Array (Homo sapiens (Human)., UniProt Q8N158); experiment: flow cytometry on cells
[3] = biological target: murine Gpc2 on the surface of cells (Gpc2 pLenti CMV puro vector) (Mus musculus (Mouse)., UniProt Q8BKV1); experiment: flow cytometry on cells
Sequence of murine Gpc2 on the surface of cells (Gpc2 pLenti CMV puro vector) (Q8BKV1 22-556): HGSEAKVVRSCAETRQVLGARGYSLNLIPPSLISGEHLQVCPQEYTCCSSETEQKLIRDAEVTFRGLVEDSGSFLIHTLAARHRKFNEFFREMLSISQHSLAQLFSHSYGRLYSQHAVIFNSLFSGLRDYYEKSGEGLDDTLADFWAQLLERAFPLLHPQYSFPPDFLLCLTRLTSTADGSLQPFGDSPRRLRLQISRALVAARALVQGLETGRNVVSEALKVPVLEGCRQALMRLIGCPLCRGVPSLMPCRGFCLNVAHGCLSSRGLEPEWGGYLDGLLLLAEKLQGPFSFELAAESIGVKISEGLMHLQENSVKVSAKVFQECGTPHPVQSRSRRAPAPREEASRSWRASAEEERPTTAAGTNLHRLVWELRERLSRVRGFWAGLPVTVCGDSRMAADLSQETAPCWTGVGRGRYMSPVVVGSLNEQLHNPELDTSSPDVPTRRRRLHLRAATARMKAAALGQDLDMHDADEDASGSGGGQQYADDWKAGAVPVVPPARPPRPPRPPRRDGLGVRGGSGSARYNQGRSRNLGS

[4] = biological target: human GPC2 on the surface of cells (GPC2 pLenti CMV puro vector) (Homo sapiens (Human)., UniProt Q8N158); experiment: flow cytometry on cells
Sequence of human GPC2 on the surface of cells (GPC2 pLenti CMV puro vector) (Q8N158 24-554): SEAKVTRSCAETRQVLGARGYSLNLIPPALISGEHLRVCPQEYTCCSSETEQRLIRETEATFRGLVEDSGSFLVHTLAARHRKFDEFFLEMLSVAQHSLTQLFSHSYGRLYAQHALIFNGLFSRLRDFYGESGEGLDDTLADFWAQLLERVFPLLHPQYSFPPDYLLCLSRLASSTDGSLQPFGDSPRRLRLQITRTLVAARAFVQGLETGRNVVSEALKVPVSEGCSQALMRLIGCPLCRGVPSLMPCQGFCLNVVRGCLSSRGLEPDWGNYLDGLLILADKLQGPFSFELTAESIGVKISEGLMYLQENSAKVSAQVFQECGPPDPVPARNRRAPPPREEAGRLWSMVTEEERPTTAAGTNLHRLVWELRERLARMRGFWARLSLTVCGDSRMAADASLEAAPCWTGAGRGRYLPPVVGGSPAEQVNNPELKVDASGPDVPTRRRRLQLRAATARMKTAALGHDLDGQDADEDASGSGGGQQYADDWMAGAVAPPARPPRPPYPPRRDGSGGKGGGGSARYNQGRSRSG

[5] = biological target: GPC2^24-493 (fully glycanated) (Homo sapiens (Human)., UniProt Q8N158); experiment: BLI
Sequence of GPC2^24-493 (fully glycanated) (Q8N158 24-493): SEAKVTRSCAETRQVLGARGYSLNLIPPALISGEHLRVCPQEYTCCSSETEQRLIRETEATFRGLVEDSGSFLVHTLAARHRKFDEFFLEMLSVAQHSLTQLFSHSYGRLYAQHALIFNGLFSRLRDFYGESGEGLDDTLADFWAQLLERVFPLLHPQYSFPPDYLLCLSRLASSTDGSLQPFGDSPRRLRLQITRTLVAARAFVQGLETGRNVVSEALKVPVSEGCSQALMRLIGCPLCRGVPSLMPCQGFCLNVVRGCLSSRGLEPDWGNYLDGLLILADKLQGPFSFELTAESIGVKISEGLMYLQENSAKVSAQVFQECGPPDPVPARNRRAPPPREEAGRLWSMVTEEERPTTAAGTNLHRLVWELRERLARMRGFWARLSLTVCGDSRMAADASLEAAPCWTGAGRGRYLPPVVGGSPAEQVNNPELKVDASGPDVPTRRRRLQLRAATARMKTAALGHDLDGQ

[6] = biological target: GPC2^24-554 (fully glycanated) (Homo sapiens (Human)., UniProt Q8N158); experiment: BLI
Sequence of GPC2^24-554 (fully glycanated) (Q8N158 24-554): as the sequence (Q8N158 24-554) above

Measured: binding result

Sequence of GPC2 clone of the Membrane Proteome Array (Q8N158 24-554): as above
Sequence of endogenous GPC2 on high-GPC2-expressing neuroblastoma cell lines (Q8N158 24-554): as above

B1: D3-GPC2-IgG1 (fully human GPC2 antibody, full-length human IgG1) (antibody, V domains shown)
VH: EVQLVETGGGVVKPGGSLRLSCAASGFTFSDYYMSWIRQAPGKGLEWVSYISSSGSTIYYADSVKGRFTISRDNSKNTLYLQMNSLRAEDTAVYYCARESGYDYVFDYWGQGTLVAVSS
VL: DIQMTQSPSTLSAFVGDRVTITCRASQSISSWLAWYQQKPGKAPKLLIYAASTLQSGVPSRFSGSGSGTEFTLTISSLQPEDFATYYCQQLNSYPITFGQGTRLEIK
binds: [1] | [2] | [3] | [4]

B2: D3-GPC2 antigen-binding fragment (D3-GPC2-Fab) (Fab, V domains shown)
VH: B1 VH
VL: B1 VL
binds: [5] | [6]
